From article PMC7041945, “Misfolded proteins bind and activate death receptor 5 to trigger apoptosis during unresolved endoplasmic reticulum stress” (eLife, 2020)

Key:
[1] = system: DR5 / ERGIC53 / giantin in HCT116 cells; experiment: Immunofluorescence co-localization (Pearson's correlation per cell); assay type: cell-based, Homo sapiens
Procedure: HCT116 were seeded at 25000 cells per well in an 8-well glass-bottom μSlide (Ibidi 80827) pre-coated with Collagen IV (Sigma-Aldrich C6745, 0.03 mg/ml in PBS incubated for 30 min at RT, and then rinsed off with PBS x 3) in growth media 18 hr prior to transfection (see above for protocol). 24 hr post-transfection, the cells were fixed using 4% paraformaldehyde (PFA, Electron Microscopy Sciences) or methanol, depending on the antibody combination used for immunostaining (see table below). Samples were protected from light after fixation to preserve GFP fluorescence.
For fixation with 4% PFA, 32% PFA was added directly to the well in growth media for a 1:8 dilution and incubated for 10–15 min at RT. Cells were then permeabilized with PHEM buffer (60 mM PIPES, 25 mM HEPES, 10 mM EGTA, 2 mM MgCl2-hexahydrate, pH 6.9) containing 0.1% Triton-X100 for 10 min at RT for three washes.
For fixation with methanol, media was removed and cells were washed with cold PBS. Then methanol (pre-cooled at −20°C) was added to the well and incubated at −20°C for 3–4 min. The methanol was promptly aspirated and replaced with PHEM buffer (without Triton X-100), followed by two more 10 min washes with PHEM at RT.
To block against non-specific antibody interactions, cells were rinsed in PHEM (without 0.1% Triton X-100) and then incubated with PHEM containing 2% normal goat serum (Jackson Immunoresearch Laboratories, 005-000-121) for 1 hr at RT. Primary antibodies were incubated in blocking solution overnight at 4°C at the dilution noted in the table above. […]
From the 405 nm channel, cell nuclei were identified as primary objects using maximum correlation thresholding (MCT) and shape to distinguish clumped objects. […] For overlap between DR5 and MPZ/RHO-GFP, Pearson’s correlation coefficients were calculated within the MPZ/RHO mask for each cell to filter out untransfected cells. For overlap between DR5/MPZ and organelle markers, Pearson’s correlation coefficients were calculated within tertiary objects for the organelle marker in GFP+ cells. […]

[2] = system: caspase 8 in HCT116 lysates; experiment: Size-exclusion chromatography of cell lysates with caspase 8 activity; assay type: cell-based, Homo sapiens; conditions: relative to GFP; 24 hr
Procedure: Size-exclusion fractionation of cell lysate was performed as previously described in [Lu et al. (2014)] with minor modifications.
In a 15 cm dish, 4 million HCT116 cells were seeded 18 hr prior to transfection (see Transient transfections for protein expression). 24 hr post-transfection, cells were harvested by collecting all media (to collect detached, dying cells) and scraping the dish in 3 ml of cold PBS. The cell suspension was centrifuged at 500xg to pellet the sample. Cells were washed with an additional 1 ml of cold PBS, pelleted, and flash frozen in liquid N2 prior to lysis.
Cells were resuspended in 600 μl of lysis buffer (30 mM HEPES pH 7.2, 150 mM NaCl, 1% Triton X-100) with 1x protease inhibitor (Roche) and lysed through a 25G needle with 10 passes. […]
For the caspase 8 activity assay, 10 μl of each fraction was incubated with 10 μl of the caspase glo 8 substrate (Promega #PRG8200) in a 384-well white walled plate (Corning 3574) for 45 min at RT before measuring luminescence on a Spectramax-M5 plate reader.
For Western blots, every three fractions were pooled for a total of 1.5 ml and subjected to TCA precipitation to concentrate the protein content. Samples were then analyzed by SDS-PAGE and immunoblotted for GFP and DR5.

[3] = MPZ-positive cells, N > 55, 24 hr, mean

B1: MPZ-GFP: myelin protein zero with a C-terminal monomeric EGFP, expressed from plasmid (protein)
chain: IVVYTDREVHGAVGSRVTLHCSFWSSEWVSDDISFTWRYQPEGGRDAISIFHYAKGQPYIDEVGTFKERIQWVGDPRWKDGSIVIHNLDYSDNGTFTCDVKNPPDIVGKTSQVTLYVFEKVPTRYGVVLGAVIGGVLGVVLLLLLLFYVVRYCWLRRQAALQRRLSAMEKGKLHKPGKDASKRGRQTPVLYAMLDHSRSTKAVSEKKAKGLGESRKDKK
modifications: left off: monomeric EGFP, C-terminal, kept
notes: myelin protein zero with a C-terminal monomeric EGFP, expressed from plasmid
Pearson's correlation per cell between DR5 and ERGIC53 [1, 3]: 0.61 ± 0.03
Pearson's correlation per cell between DR5 and giantin [1, 3]: 0.14 ± 0.02
overlap (mean Pearson's correlation) with DR5 signal ([1]; versus 90° rotated images, 24 hr): statistically significant overlap with DR5 signal
caspase 8 activity in high MW size exclusion fractions [2]: increased caspase 8 activity in high-molecular w8 (MW) fractions
